Measured values published in article PMC2807882, “Conservation of DNA-binding specificity and oligomerisation properties within the p53 family”.

T1: Drp53 (Danio rerio, UniProt P79734 1-373)
T1 sequence: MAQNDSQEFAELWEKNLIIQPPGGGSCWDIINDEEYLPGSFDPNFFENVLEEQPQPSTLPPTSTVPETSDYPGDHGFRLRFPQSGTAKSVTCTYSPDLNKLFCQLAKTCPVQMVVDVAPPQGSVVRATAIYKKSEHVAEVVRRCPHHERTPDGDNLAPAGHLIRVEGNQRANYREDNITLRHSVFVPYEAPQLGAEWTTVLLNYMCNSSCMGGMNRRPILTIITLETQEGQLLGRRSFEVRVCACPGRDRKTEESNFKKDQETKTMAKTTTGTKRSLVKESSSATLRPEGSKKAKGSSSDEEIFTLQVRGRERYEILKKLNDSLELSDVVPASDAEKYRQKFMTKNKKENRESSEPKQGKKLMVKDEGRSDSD

T2: Dmp53 (Drosophila melanogaster, UniProt Q9N6D8 1-385)
T2 sequence: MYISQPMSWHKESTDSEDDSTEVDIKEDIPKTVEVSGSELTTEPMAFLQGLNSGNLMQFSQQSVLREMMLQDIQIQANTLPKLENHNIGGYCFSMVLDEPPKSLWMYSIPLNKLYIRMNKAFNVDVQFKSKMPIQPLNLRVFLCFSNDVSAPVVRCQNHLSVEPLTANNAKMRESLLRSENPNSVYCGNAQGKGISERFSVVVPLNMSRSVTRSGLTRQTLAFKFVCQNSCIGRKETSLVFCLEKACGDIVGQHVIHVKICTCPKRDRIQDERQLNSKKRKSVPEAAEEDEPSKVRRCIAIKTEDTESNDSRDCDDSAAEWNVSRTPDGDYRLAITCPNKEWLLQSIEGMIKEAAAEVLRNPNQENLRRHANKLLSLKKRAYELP

T3: ΔNp73β (Homo sapiens, UniProt O15350-9 1-450)
T3 sequence: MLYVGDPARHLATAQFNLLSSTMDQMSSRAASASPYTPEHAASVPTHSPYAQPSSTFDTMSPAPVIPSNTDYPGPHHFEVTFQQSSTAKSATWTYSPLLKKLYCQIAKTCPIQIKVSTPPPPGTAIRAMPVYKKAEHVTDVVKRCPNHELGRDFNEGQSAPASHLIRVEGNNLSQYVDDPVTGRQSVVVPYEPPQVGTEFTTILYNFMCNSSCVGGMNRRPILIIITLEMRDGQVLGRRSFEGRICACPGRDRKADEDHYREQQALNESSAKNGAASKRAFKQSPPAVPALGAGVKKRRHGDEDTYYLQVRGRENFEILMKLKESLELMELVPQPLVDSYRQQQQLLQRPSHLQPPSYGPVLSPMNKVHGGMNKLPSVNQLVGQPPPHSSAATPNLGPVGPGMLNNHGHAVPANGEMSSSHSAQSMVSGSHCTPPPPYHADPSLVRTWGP

T4: ΔNp63γ (Homo sapiens, UniProt Q9H3D4-6 1-393)
T4 sequence: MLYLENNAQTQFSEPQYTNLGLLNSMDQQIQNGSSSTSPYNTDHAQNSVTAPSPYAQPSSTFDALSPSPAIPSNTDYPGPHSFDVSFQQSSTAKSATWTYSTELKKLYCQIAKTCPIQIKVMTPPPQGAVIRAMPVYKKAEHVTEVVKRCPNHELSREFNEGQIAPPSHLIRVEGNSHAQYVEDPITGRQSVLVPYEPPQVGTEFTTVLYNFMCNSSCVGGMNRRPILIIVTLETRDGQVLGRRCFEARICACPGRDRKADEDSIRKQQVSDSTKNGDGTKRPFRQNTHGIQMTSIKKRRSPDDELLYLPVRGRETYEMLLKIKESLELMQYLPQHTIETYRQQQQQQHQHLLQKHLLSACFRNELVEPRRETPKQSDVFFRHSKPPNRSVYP

T5: ΔNp63β (Homo sapiens, UniProt Q9H3D4-4 1-461)
T5 sequence: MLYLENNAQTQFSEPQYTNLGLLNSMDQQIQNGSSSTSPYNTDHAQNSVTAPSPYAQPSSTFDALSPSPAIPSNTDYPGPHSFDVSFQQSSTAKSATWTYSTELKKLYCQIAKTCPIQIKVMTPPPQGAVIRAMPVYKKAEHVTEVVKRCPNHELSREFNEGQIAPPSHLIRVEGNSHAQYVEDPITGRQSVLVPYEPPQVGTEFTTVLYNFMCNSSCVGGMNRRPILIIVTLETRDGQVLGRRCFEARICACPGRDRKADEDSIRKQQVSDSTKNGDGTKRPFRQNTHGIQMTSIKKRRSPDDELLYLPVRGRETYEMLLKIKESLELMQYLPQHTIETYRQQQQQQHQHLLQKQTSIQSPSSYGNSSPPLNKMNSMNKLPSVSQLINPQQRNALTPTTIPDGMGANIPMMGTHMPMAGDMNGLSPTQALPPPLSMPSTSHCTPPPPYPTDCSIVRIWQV

T6: ΔNp63α (Homo sapiens, UniProt Q9H3D4-2 1-586)
T6 sequence: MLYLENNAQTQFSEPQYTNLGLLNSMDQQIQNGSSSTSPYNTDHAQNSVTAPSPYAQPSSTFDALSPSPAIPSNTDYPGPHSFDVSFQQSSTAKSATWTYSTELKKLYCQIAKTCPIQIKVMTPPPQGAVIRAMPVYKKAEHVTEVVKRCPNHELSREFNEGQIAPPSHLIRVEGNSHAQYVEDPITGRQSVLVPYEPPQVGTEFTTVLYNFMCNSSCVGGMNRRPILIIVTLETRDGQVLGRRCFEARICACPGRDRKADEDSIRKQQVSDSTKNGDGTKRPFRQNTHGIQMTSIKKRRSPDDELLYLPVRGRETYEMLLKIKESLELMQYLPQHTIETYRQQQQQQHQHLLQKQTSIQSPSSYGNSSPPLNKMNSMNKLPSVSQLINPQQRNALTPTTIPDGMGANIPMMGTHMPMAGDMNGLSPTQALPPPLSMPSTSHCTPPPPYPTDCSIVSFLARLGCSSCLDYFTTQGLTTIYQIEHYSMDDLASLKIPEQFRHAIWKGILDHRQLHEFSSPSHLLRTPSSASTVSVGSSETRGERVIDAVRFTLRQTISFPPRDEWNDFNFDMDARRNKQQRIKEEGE


Tests used:
Assay in all cases: anisotropy competition; 25 mM NaPi, 225 mM NaCl, 10% v/v glycerol, 5 mM DTT, 0.2 mg/mL BSA, 22°C; 20 nM labelled DNA; pH not stated for the binding assay
Conditions in all cases: protein: recombinant; tags: N-terminal 6xHis-lipoyl-TEV tag, cleaved; chain copies: 4
Xlp53 [1] = biological target: T7, Xlp53 (Xenopus laevis, UniProt Q7T1D0 1-362)
Drp53 = biological target: T1, Drp53
Mmp53 = Mmp53 (Mus musculus, UniProt P02340 1-390)
Dmp53 = biological target: T2, Dmp53
ΔNp73β = biological target: T3, ΔNp73β
ΔNp63γ = biological target: T4, ΔNp63γ
ΔNp63β = biological target: T5, ΔNp63β
Hsp53 = Hsp53 (Homo sapiens, UniProt P04637 1-393)
ΔNp63α = biological target: T6, ΔNp63α
Xlp53 [2] = biological target: T7, Xlp53; remark: listed apart in the source

T7 sequence (Q7T1D0 entry or part of it): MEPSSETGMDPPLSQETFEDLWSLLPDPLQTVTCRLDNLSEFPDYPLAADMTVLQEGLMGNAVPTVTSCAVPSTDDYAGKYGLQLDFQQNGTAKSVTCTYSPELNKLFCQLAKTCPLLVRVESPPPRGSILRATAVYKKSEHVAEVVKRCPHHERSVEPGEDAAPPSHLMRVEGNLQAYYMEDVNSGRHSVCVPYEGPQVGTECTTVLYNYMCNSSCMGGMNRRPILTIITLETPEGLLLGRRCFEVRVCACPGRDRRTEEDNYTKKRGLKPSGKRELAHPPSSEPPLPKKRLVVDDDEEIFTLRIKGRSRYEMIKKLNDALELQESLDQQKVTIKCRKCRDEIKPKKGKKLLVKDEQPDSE
Sequence of Mmp53 (P02340 whole entry): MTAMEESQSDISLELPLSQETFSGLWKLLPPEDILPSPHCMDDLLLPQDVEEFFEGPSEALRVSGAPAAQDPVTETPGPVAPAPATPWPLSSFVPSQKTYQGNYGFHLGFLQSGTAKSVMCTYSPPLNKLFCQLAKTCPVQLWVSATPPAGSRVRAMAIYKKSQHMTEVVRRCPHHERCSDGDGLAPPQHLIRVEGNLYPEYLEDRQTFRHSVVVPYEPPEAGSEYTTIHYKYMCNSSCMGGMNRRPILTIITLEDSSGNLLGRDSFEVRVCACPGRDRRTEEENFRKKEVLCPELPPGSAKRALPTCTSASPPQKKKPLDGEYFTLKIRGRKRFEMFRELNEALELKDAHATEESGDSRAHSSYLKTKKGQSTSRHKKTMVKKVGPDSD
Sequence of Hsp53 (P04637 whole entry): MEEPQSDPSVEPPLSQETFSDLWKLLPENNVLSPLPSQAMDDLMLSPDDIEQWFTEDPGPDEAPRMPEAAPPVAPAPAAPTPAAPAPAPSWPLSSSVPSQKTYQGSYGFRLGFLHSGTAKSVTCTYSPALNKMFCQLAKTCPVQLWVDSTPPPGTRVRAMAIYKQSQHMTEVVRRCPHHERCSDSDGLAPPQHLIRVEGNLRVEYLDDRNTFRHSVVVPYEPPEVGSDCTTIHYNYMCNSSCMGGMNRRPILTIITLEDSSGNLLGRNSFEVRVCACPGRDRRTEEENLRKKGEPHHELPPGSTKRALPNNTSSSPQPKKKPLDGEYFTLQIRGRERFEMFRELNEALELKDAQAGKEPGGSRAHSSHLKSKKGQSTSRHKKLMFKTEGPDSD

Binder | Kd (Xlp53 [1]) | binding signal (Drp53) | binding signal (Mmp53) | binding signal (Dmp53) | binding signal (ΔNp73β) | binding signal (ΔNp63γ) | binding signal (ΔNp63β) | binding signal (Hsp53) | binding signal (ΔNp63α) | binding signal (Xlp53 [2])
G7C (dsDNA) DNA 1: CGCGGACATCTCCGGACATGTCCCGC DNA 2: GCGGGACATGTCCGGAGATGTCCGCG | -5.7 log10(M) | 1.3 ΔlogKd vs ref | 0.67 ΔlogKd vs ref | 1.51 ΔlogKd vs ref | 1.8 ΔlogKd vs ref | 1.68 ΔlogKd vs ref | 1.45 ΔlogKd vs ref | 0.9 ΔlogKd vs ref | 1.33 ΔlogKd vs ref | –
A3C (dsDNA) DNA 1: CGCGGCCATGTCCGGACATGTCCCGC DNA 2: GCGGGACATGTCCGGACATGGCCGCG | – | – | 0.46 ΔlogKd vs ref | 0.75 ΔlogKd vs ref | – | 0.93 ΔlogKd vs ref | – | 0.66 ΔlogKd vs ref | – | 0.82 ΔlogKd vs ref
A5G (dsDNA) DNA 1: CGCGGACGTGTCCGGACATGTCCCGC DNA 2: GCGGGACATGTCCGGACACGTCCGCG | -6.64 log10(M) | – | – | – | – | – | – | – | – | –
G2C (dsDNA) DNA 1: CGCGCACATGTCCGGACATGTCCCGC DNA 2: GCGGGACATGTCCGGACATGTGCGCG | – | 0.41 ΔlogKd vs ref | 0.28 ΔlogKd vs ref | – | 0.44 ΔlogKd vs ref | 0.37 ΔlogKd vs ref | 0.36 ΔlogKd vs ref | 0.37 ΔlogKd vs ref | 0.15 ΔlogKd vs ref | 0.27 ΔlogKd vs ref
T6C (dsDNA) DNA 1: CGCGGACACGTCCGGACATGTCCCGC DNA 2: GCGGGACATGTCCGGACGTGTCCGCG | – | 0.65 ΔlogKd vs ref | 0.36 ΔlogKd vs ref | 0.25 ΔlogKd vs ref | 0.62 ΔlogKd vs ref | 0.52 ΔlogKd vs ref | 0.57 ΔlogKd vs ref | 0.53 ΔlogKd vs ref | 0.25 ΔlogKd vs ref | 0.7 ΔlogKd vs ref
A5C (dsDNA) DNA 1: CGCGGACCTGTCCGGACATGTCCCGC DNA 2: GCGGGACATGTCCGGACAGGTCCGCG | – | 0.77 ΔlogKd vs ref | 0.4 ΔlogKd vs ref | 0.54 ΔlogKd vs ref | 0.64 ΔlogKd vs ref | 0.58 ΔlogKd vs ref | 0.57 ΔlogKd vs ref | 0.45 ΔlogKd vs ref | 0.3 ΔlogKd vs ref | 0.48 ΔlogKd vs ref
